Experimental data taken from the supplement of paper PMC10065799, “High-throughput profiling of sequence recognition by tyrosine kinases and SH2 domains using bacterial peptide display” (eLife, 2023).

Key:
[1] = tested on: AncSZ; assay: phosphorylation enrichment, bacterial display (enrichment ratio); higher = better substrate or ligand; peptides without Tyr show the background
[2] = molecular target: EPHB1 (UniProt P54762); assay: as above
[3] = molecular target: EPHB2 (UniProt P29323); assay: as above
[4] = molecular target: FGFR1 (UniProt P11362); assay: as above
Sequence of FGFR1 (P11362 whole entry, looked up): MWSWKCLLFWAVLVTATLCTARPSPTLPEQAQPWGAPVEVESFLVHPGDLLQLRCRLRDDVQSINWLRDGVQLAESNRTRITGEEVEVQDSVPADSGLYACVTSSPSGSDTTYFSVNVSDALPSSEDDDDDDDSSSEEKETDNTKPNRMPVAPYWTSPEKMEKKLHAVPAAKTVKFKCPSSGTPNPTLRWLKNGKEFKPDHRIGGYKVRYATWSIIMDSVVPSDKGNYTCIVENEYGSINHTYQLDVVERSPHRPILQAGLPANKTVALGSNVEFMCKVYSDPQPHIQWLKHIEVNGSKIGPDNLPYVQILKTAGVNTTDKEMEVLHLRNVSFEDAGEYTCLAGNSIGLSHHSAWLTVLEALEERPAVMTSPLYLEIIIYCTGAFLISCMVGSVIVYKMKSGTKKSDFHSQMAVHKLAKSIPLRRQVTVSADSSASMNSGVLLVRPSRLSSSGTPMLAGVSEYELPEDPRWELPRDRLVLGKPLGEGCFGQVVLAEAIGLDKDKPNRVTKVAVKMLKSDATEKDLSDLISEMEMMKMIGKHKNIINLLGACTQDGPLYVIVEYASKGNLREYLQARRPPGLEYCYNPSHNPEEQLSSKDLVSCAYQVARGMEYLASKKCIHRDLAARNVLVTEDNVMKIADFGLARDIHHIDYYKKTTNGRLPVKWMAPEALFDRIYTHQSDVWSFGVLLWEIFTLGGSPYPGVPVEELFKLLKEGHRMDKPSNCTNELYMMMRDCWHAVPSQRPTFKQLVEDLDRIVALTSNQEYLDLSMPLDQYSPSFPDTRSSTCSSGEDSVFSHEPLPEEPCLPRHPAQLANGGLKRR

[5] = molecular target: FGFR3 (UniProt P22607); assay: as above
[6] = tested on: Fer (mouse); assay: as above
[7] = molecular target: Fes (UniProt P07332); assay: as above
[8] = molecular target: Fyn (UniProt P06241); assay: as above
Sequence of Fyn (P06241 whole entry, looked up): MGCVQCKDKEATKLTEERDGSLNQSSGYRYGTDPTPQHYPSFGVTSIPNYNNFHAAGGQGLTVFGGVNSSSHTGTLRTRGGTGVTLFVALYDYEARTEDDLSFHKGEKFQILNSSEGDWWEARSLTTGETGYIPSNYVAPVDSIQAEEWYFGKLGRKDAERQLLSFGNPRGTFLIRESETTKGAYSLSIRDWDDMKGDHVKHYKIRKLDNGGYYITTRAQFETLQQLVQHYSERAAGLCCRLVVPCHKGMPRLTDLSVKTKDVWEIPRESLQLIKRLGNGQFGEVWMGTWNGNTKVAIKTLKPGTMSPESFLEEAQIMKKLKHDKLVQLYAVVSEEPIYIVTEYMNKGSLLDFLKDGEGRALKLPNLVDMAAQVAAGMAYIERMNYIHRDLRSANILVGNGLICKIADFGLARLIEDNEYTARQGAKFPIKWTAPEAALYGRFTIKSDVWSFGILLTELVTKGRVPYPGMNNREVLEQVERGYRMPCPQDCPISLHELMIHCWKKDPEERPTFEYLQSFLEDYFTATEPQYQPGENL

[9] = molecular target: Hck (UniProt P08631); assay: as above
Sequence of Hck (P08631 whole entry, looked up): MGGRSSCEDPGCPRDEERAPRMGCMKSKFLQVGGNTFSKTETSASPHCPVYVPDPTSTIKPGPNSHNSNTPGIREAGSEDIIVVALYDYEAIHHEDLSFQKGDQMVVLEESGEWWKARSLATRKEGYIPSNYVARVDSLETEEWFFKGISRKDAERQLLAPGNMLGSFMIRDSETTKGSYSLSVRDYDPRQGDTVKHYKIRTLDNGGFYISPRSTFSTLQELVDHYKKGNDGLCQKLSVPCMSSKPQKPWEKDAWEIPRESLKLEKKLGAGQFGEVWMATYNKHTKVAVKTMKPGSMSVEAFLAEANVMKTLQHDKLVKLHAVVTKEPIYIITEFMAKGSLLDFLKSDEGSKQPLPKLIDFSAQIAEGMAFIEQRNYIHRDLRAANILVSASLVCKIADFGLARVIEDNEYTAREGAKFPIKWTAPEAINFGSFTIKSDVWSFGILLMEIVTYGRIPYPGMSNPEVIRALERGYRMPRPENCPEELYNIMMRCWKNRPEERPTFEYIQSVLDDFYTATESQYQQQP

[10] = molecular target: Jak2 (UniProt O60674); assay: as above
Sequence of Jak2 (O60674 whole entry, looked up): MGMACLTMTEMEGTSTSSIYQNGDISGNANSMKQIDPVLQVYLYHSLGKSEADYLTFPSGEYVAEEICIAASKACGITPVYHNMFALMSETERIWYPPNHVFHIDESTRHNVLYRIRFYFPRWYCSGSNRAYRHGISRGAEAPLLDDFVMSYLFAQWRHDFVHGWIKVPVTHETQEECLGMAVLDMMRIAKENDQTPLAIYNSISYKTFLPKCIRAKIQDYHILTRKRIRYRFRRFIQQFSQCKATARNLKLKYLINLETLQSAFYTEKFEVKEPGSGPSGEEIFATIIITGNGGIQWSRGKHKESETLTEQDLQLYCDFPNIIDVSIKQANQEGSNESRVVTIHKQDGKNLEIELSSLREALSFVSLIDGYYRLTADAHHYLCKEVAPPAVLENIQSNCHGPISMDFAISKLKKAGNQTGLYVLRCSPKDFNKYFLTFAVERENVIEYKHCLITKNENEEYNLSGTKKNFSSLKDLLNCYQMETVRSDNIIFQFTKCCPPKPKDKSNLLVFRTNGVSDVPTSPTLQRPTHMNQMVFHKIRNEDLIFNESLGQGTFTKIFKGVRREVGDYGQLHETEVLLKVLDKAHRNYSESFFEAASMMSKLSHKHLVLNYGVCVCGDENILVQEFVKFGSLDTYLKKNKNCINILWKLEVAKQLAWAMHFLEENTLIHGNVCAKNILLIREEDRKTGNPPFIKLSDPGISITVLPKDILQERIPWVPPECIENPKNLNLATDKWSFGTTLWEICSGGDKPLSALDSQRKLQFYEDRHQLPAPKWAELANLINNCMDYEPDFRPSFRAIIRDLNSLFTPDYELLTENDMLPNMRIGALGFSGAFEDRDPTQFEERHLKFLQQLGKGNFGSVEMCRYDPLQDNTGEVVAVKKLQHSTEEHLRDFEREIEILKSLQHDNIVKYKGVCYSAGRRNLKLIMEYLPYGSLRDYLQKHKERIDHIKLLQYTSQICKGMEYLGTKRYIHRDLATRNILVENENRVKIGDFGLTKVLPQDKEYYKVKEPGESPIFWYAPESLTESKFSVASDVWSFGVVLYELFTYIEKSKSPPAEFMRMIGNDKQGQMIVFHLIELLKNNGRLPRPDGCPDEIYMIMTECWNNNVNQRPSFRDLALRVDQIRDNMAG

[11] = molecular target: MERTK (UniProt Q12866); assay: as above
Sequence of MERTK (Q12866 whole entry, looked up): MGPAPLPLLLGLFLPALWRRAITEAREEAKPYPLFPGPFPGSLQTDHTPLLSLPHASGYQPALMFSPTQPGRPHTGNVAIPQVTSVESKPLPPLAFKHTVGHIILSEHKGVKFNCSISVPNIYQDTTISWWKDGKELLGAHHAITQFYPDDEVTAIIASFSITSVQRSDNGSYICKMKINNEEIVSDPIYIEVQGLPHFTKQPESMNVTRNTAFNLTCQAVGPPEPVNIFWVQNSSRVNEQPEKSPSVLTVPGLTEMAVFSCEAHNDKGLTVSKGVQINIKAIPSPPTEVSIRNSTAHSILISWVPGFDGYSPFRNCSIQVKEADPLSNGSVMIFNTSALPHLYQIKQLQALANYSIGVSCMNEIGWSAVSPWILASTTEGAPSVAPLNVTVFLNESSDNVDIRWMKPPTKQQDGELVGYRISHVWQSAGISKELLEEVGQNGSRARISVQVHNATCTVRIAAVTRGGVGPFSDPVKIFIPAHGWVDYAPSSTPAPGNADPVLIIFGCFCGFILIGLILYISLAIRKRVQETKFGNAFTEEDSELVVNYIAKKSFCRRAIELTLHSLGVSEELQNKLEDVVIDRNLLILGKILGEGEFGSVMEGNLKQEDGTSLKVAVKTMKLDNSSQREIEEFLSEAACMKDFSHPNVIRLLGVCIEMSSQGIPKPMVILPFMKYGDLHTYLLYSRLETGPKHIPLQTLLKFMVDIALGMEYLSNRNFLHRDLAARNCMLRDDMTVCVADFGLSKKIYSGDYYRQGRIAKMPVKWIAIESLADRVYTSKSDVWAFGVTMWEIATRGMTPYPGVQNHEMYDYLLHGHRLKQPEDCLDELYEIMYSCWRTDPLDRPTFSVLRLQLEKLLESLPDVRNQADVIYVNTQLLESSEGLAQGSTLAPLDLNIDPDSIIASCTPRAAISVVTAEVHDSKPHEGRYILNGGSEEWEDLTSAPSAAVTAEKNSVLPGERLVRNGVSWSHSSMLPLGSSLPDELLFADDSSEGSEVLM

[12] = tested on: c-Abl (mouse); assay: as above
[13] = tested on: c-Src; assay: as above
[14] = molecular target: Grb2 SH2 (UniProt P62993); assay: SH2 binding enrichment of the phosphorylated peptide, bacterial display (enrichment ratio); higher = better substrate or ligand; peptides without Tyr show the background
[15] = molecular target: SHP2-C SH2; assay: as above
[16] = molecular target: c-Src SH2; assay: as above
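Wherever SH2 binding enrichment of the phosphorylated peptide, bacterial display is given: peptide library displayed on the E. coli surface as eCPX fusions, selected cells deep-sequenced, score is each peptide's frequency after selection divided by its frequency in the input.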
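Wherever phosphorylation enrichment, bacterial display is given: 11-residue human phosphosite peptides and single-mutation variants displayed on the E. coli surface, counted by deep sequencing, each peptide's frequency after selection divided by its frequency in the unselected input library; frequency after pTyr selection over input frequency; kinase dosed for 20-30% of maximal phosphorylation in three min.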

Sequence of EPHB1 (P54762 whole entry, looked up): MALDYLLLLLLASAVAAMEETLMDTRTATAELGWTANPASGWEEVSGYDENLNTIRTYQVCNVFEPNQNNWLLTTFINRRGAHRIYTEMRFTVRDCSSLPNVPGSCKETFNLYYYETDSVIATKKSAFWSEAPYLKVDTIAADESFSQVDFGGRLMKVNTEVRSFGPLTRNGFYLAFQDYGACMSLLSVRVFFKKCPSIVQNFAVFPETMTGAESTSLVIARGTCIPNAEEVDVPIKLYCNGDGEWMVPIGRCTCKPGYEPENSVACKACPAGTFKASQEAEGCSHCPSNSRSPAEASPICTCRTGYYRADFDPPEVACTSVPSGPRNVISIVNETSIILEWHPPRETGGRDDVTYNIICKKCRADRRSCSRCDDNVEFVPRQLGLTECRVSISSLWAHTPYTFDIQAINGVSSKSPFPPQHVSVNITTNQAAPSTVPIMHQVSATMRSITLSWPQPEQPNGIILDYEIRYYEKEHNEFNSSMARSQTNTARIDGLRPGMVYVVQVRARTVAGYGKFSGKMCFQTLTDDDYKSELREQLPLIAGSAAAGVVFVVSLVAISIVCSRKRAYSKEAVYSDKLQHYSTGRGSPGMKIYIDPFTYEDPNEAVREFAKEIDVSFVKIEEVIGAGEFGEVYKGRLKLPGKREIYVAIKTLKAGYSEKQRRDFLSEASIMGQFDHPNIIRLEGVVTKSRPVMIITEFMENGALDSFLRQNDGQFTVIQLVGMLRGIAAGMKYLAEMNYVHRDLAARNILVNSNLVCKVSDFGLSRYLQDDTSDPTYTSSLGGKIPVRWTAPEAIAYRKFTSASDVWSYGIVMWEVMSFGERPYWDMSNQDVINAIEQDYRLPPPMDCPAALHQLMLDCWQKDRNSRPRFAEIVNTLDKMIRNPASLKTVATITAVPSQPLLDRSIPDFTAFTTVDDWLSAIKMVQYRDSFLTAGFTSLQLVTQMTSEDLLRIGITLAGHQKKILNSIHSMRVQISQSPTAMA

Sequence	SH2 binding enrichment [14]	SH2 binding enrichment [15]	SH2 binding enrichment [16]	phosphorylation enrichment [1]	phosphorylation enrichment [2]	phosphorylation enrichment [3]	phosphorylation enrichment [4]	phosphorylation enrichment [5]	phosphorylation enrichment [6]	phosphorylation enrichment [7]	phosphorylation enrichment [8]	phosphorylation enrichment [9]	phosphorylation enrichment [10]	phosphorylation enrichment [11]	phosphorylation enrichment [12]	phosphorylation enrichment [13]
EEGEEYGGGGG [TUBA1A_Y451]	0.97	0.744	0.6	1.19	0.638	0.769	0.604	0.701	0.552	1.32	0.557	0.602	0.946	0.485	0.815	0.531
EEGESDVCSSD [DCX_Y125_Y125D]	0.922	0.924	0.699	1.04	0.525	0.507	0.497	0.544	0.479	0.939	0.505	0.457	0.797	0.495	0.621	0.518
EEKKKYYDAKI [CASP5_Y103_T106A]	1.28	1.02	0.521	0.626	0.467	0.432	0.529	0.518	0.447	0.764	0.371	0.411	0.848	0.429	0.565	0.396
EFKDAYKFAAD [BRDT_Y335_YF]	0.7	0.779	0.459	0.647	0.367	0.491	0.414	0.524	0.408	0.731	0.414	0.429	0.638	0.492	0.459	0.447
EFKDAYTFAAD [BRDT_Y335_K336T_YF]	0.813	0.713	0.703	1.09	0.452	0.519	0.508	0.606	0.477	0.959	0.63	0.57	0.835	0.456	0.647	1.36
ELAKYYKLHHI [AK7_Y391_N389K]	0.961	0.93	0.748	0.884	0.589	0.562	0.516	0.677	0.461	0.827	0.41	0.393	0.987	0.376	0.665	0.478
ELPEKYSQNIC [PKP2_Y626_Y631C]	0.997	0.703	0.493	1.01	0.538	0.605	0.518	0.599	0.446	1.12	0.497	0.533	1.18	0.544	0.956	0.579
ELTTCYRKKCC [CCBE1_Y70]	1.02	0.873	0.741	0.817	0.441	0.48	0.485	0.507	0.393	0.785	0.444	0.396	0.652	0.413	0.559	0.379
ENKGVYVLMSG [IVD_Y277]	0.987	0.892	3.06	1.2	0.727	0.626	2.5	1.79	0.599	1.26	0.561	0.518	1.23	1.13	0.739	0.788
ENKGVYVPMSG [IVD_Y277_L279P]	0.734	0.445	3.41	0.599	0.411	0.383	0.48	0.531	0.405	0.559	0.367	0.519	0.517	0.451	0.503	0.449
ETCLAYREKRI [TEKT1_Y118]	0.948	0.742	0.611	1.07	0.466	0.519	0.61	0.558	0.371	0.956	0.536	0.49	0.693	0.508	0.503	0.423
ETLLFYGCRRS [POR_Y564_YF]	0.66	0.582	0.299	0.749	0.468	0.458	0.621	0.445	0.465	0.675	0.43	0.463	0.659	0.424	0.82	0.563
ETSHNYHKFDS [MATR3_Y243]	0.623	0.881	1.11	0.463	0.416	0.451	0.393	0.475	0.372	0.551	0.401	0.395	0.662	0.393	0.61	0.475

More lines, main results first:

SH2 binding enrichment [14]	SH2 binding enrichment [15]	SH2 binding enrichment [16]	Sequence	phosphorylation enrichment [1]	phosphorylation enrichment [2]	phosphorylation enrichment [3]	phosphorylation enrichment [4]	phosphorylation enrichment [5]	phosphorylation enrichment [6]	phosphorylation enrichment [7]	phosphorylation enrichment [8]	phosphorylation enrichment [9]	phosphorylation enrichment [10]	phosphorylation enrichment [11]	phosphorylation enrichment [12]	phosphorylation enrichment [13]
0.921	0.881	0.654	EAVSIYQFFGQ [CBLC_Y402_H405Y_YF]	1.74	11.2	5.73	3.15	2.67	8.72	1.36	7.8	7.12	1.34	9.29	6.44	6.58
1.02	1.09	0.616	ECKLLYSRKEG [PTPN11_Y263]	0.855	0.436	0.513	0.487	0.554	0.465	0.754	0.446	0.564	0.647	0.483	0.77	0.425
0.818	0.674	2.06	EEGNPYYSSAR [MCCC2_Y520]	1.09	0.499	0.473	0.468	0.647	0.528	0.845	0.793	1.18	0.848	0.422	0.679	1.99
0.82	1.15	1.22	EEGNPYYSSTR [MCCC2_Y520_A524T]	1.1	0.595	0.531	0.672	0.74	0.722	1.1	0.921	1.25	0.693	0.428	0.67	1.44
1.31	1.51	1.57	EFKKHYGYSLY [ANXA3_Y295]	0.531	0.367	0.39	0.471	0.38	0.353	0.611	0.433	0.727	0.555	0.401	0.541	0.598
0.828	0.709	0.403	EGDGVYTLNNE [HP_Y125]	1.26	0.602	0.633	0.595	0.822	0.658	1.16	6.33	3.07	0.934	0.509	0.817	4.26
1.01	0.768	1.23	EGNEQYEGYCV [GRIA3_Y451_R450Q]	1.19	0.556	0.592	0.557	0.691	1.11	1.05	0.567	0.604	0.942	0.422	1.26	0.506
0.688	0.632	0.559	EHIEFYELDKK [PMM2_Y145_R141H]	1.01	0.4	0.492	0.487	0.571	0.456	1.1	0.566	0.445	0.746	0.514	0.588	1.11
1.26	0.974	0.64	EILLSYLRTGF [TGM1_Y365_YF]	1.05	0.418	0.967	0.433	0.619	0.411	0.943	0.401	0.41	0.981	0.387	0.492	0.394
0.762	0.436	0.522	EKKKKYMLPLD [DNM2_Y563_E560K]	0.594	0.52	0.469	0.5	0.506	0.502	0.951	0.604	0.452	0.567	0.504	0.691	0.496
3.9	1.16	0.562	ELTAKYLNFFQ [P3H4_Y181_YF]	0.871	0.564	0.479	0.438	0.681	0.517	1.05	0.458	0.396	0.908	0.385	0.765	0.454
0.632	0.638	0.41	EMTAEYTCTRK [ACAD9_Y325_A326T]	1.14	0.674	0.607	0.654	0.636	0.513	0.974	0.624	0.699	0.757	0.465	0.636	0.477
0.953	0.884	0.691	ENAGYYFQVSA	1.17	0.578	0.566	0.94	1.06	0.595	1.37	0.527	0.448	1.43	0.602	0.603	0.444
0.79	0.609	0.513	ETKKQYDSFTF [TMED3_Y85_YF]	0.7	0.422	0.397	0.411	0.643	0.407	0.9	0.517	0.457	0.76	0.424	0.681	0.564
0.712	0.767	0.466	ETLLYYGCRRS [POR_Y564]	0.959	0.63	0.506	0.795	0.71	0.638	0.897	1.89	5.24	1.67	1.18	0.883	3.48
0.783	0.475	0.561	EVASVYESFQP [MAVS_Y92_Q93E_YF]	1.91	1.1	1.01	0.668	0.852	14	1.31	11.2	8.64	1.65	3.2	1.56	8.96
